This note sets out measurements from patent US6660492B1, “Chimeric serine proteases” (Boehringer Mannheim GmbH, priority 1997, dated 2003).

Assay type in all cases: biochemical
What all share (settings): pH 8.0, RT, 405 nm

A short description of series [1]: Activity determination and kinetic constants with chromogenic substrate Chromozym X. The method, then: (§1) The activity of the renatured activated rFXTa proteases was determined with the chromogenic substrates Chromozym® X (N-methoxycarbonyl-D-Nle-Gly-Arg-pNA, Boehringer Mannheim GmbH, Mannheim, Cat. No. 789763), Chromozym® U (Bz-β-Ala-Gly-Arg-pNA, Boehringer Mannheim GmbH, Mannheim, Cat. No.836583), Chromozym® PK (Bz-Pro-Phe-Arg-pNA, Boehringer Mannheim GmbH, Mannheim, Cat. No. 378445) and Chromozym® TH (Tosyl-Gly-Pro-Arg-pNA, Boehringer Mannheim GmbH, Mannheim, Cat. No. 838268) in comparison with recombinant rFXa (rFX-EGF2-AP-CD; preparation and description see PCT/EP97/03027) and native human trypsin (Sigma-Aldrich Chemie GmbH, Deisenhofen, Germany, Cat. No. T6424). Abbreviations: Bz, benzoyl; pNA, p-nitroaniline.
(§2) 10-100 μl sample was filled up to 200 μl with 190-100 μl 50 mmol/l Tris-HCl, 150 mmol/l NaCl, 5 mmol/l CaCl2, 0.1% PEG 8000, pH 8.0 and 20 μl Chromozym® X, U, PK and TH (0.5-40 mmol/l) were added to and measured against a reagent blank value in an ELISA reader at a wavelength of 405 nm and RT. The activity and the kinetic constants were determined from the linear initial slope according to the Michaelis Menten equation.

Series [2] in a line: Activity determination and kinetic constants with chromogenic substrate Chromozym U. As to the method: as §1, §2
Series [3] can be described thus: Activity determination and kinetic constants with chromogenic substrate Chromozym PK. The method, then: as §1, §2
The nature of series [4]: Activity determination and kinetic constants with chromogenic substrate Chromozym TH. As to the method: as §1, §2

Take “trypsin: native human trypsin (Sigma-Aldrich, Cat. No. T6424)”: the Km in series [1] was found to be 43 µM; in series [2], 208 µM; in series [3] it was 17 µM; in series [4], 13 µM. Further, the kcat in series [1] turned out to be 153 s⁻¹; in series [2], 225 s⁻¹; in series [3], 38 s⁻¹; in series [4] it was 95 s⁻¹.
